Target: pooled human IgG (human IgG1, 2, 3 and 4)

B1: PRT-420 (protein)
chain: MTITSVWTKGVTPPTPEDFRYNNEDVLHAPYVANQGWYDITKTFDGKDNLLCGAATAGNMLHWWFDQNKEEIERYLKKHPEKQKIIFNNQEWFDVKAAIDTKDSQTNSKLFNYFRDKAFPNLSARQLGVMPDLVLDMFINGYYLNLGKTQSTDVNRPYQDKDKRGGIFDAVFTRGDQTTLLTARHDLKNKGLNEISDLIKQELTEGKALALSHTYANVRINHVINLWGADFDAEGNLIAIYVTDSDANASIGMKKYFVGVNANGKVAISAKKIEGDNIGAQVLGLFTLSTGQDIWQKLS
- Enzyme Activity Endpoint Assay (purified): Fab′2: 515 ng/µL
- Enzyme Activity Endpoint Assay (purified): Fc: 300 ng/µL
- Enzyme Activity Endpoint Assay (purified): IgG: 125 ng/µL
- Enzyme Activity Endpoint Assay (purified): scIgG: 0 ng/µL

B2: PRT-428 (protein)
chain: MTITSVWTKGVTPPTPEDFRYNNEDVLHAPYVANQGWYDITKTFDGKDNLLCGAATAGNMLHWWFDQNKEEIERYLKKHPEKQKIIFNNQELFDVKAAIDTKDSQTNSKLFNYFRDKAFPNLSARQLGVMPDLVLDMFINGYYLNLGKTQSTDVNRPYQDKDKRGGIFDAVFTRGDQTTLLTARHDLKNKGLNEISDLIKQELTEGKALALSHTYANVRINHVINLWGADFDAEGNLIAIYVTDSDTNASIGMKKYFVGVNANGKVAISAKKIEGDNIGAQVLGLFTLSTGQDIWQKLS
- Enzyme Activity Endpoint Assay (purified): Fab′2: 505 ng/µL
- Enzyme Activity Endpoint Assay (purified): Fc: 336 ng/µL
- Enzyme Activity Endpoint Assay (purified): IgG: 90 ng/µL
- Enzyme Activity Endpoint Assay (purified): scIgG: 119 ng/µL

B3: PRT-543 (protein)
chain: MANQEIRYSKNENPNVTIKWVHGIGEPTQSEKEKIEFWWYETTTTKFFNNRKVDPLGDGNQCWAKTDSNMLHWWFVQNEENINQYIEKKNITGKINFNGEQMFDVKEGIDDNQEPEKSYIANTFRTKKAHNLSTKHKGDYIINGLSWYLYGLNNFKNAHGPTPVKKKPKFYGPALFKDVFNRGDGNTPIIVETDFKEYTKKEFEDTLSAALDSKKAIGINIYGSNVDYQHAITLWGAAFDEEENIIAIYVVDNNFKFENRIFPYGIWYEKEGRPYLFNYEINSFVKNRYVGEITTLDKGEAQWQETNLEHHHHHH
- Enzyme Activity Endpoint Assay: Fab′2: 0 ng/µL
- Enzyme Activity Endpoint Assay: Fc: 0 ng/µL
- Enzyme Activity Endpoint Assay: IgG: 1470 ng/µL
- Enzyme Activity Endpoint Assay: scIgG: 0 ng/µL

B4: PRT-547 (protein)
chain: MANQEIRYSEETPKTITSVWTKGVTPPTDFIQNEDVLHAPYIANQGWYDITKTFNGKDDLLCGAATAGNMLHWWFDQNKEEIENYLKKHPEKQKINFNGEQMFDVKEAIDTKDSQTDSALFEYFKDKAFPYLSTKHLGVFPDHVIDMFINGYRLSLTNHGPTPVKRGTKDPRGGIFDAVFTRGDQSKLLTARHDFKEKTLNEISDLIKQELTEGKALGLSHTYANVRINHVINLWGADFNSEGNLEAIYVTDSDSNASIGMKKYYVGVNAAGKVAISAKEIEGDNIGAQVLGLFTLSTGQDIWEQTNLEHHHHHH
- Enzyme Activity Endpoint Assay: Fab′2: 527 ng/µL
- Enzyme Activity Endpoint Assay: Fc: 359 ng/µL
- Enzyme Activity Endpoint Assay: IgG: 0 ng/µL
- Enzyme Activity Endpoint Assay: scIgG: 256 ng/µL

B5: PRT-590 (protein)
chain: MANQEIRYSEETPSTVTSVWTKGVTPPTDFIQNEDVLHAPYIANQGWYDITKTFNGKDDLLCGAATAGNMLHWWFDQNKEQIENYLKKHPEKQKINFNGEQMFDVKEAIDTKDSQTDSALFEYFKDKAFPYLSTKHLGVFPDHVIDMFINGYRLSLTNHGPTPVKRGTKDPRGGIFDAVFTRGDQSKLLTSRHDFKEKTLNEISDLIKQELTEGKALGLSHTYANVRINHVINLWGADFNAEGNLEAIYVTDSDSNASIGMKKYYVGVNSAGKVAISAKEIEGDNIGAQVLGLFTLSTGQDIWNQTNLEHHHHHH
- Enzyme Activity Endpoint Assay: Fab′2: 954 ng/µL
- Enzyme Activity Endpoint Assay: Fc: 217 ng/µL
- Enzyme Activity Endpoint Assay: IgG: 0 ng/µL
- Enzyme Activity Endpoint Assay: scIgG: 0 ng/µL

B6: PRT-600 (protein)
chain: MANQEIRYSEETPSTITSVWTKGVTPPTDFIQNEDVLHAPYIANQGWYDITKTFNGKDDLLCGAATAGNMLHWWFDQNKEQIENYLKKHPEKQKINFNGEQMFDVKEAIDTKDSQTDSALFEYFKDKAFPYLSTKHLGVFPDHVIDMFINGYRLSLTNHGPTPVKRGTKDPRGGIFDAVFTRGDQSKLLTSRHDFKEKTLNEISDLIKQELTEGKALGLSHTYANVRINHVINLWGADFNAEGNLEAIYVTDSDSNASIGMKKYYVGVNSAGKVAISAKEIEGDNIGAQVLGLFTLSTGQDSWNQTNLEHHHHHH
- Enzyme Activity Endpoint Assay: Fab′2: 992 ng/µL
- Enzyme Activity Endpoint Assay: Fc: 441 ng/µL
- Enzyme Activity Endpoint Assay: IgG: 0 ng/µL
- Enzyme Activity Endpoint Assay: scIgG: 0 ng/µL

B7: PRT-584 (protein)
chain: MANQEIRYSEETPKTITSVWTKGVTPPTNFIYNEDVLHAPYIANQGWYDITKTFNGKDDLLCGAATAGNMLHWWFDQNKEQIERYLKKHPEKQKINFNGEQMFDVKEAIDTKDSQTNSKLFEYFKDKAFPYLSTKHLGVFPDHVIDMFINGYRLSLTNHGPTPVKRQTKDPRGGIFDAVFTRGDQSKLLTSRHDFKEKTLNEISDLIKQELTEGKALGLSHTYANVRINHVINLWGADFNAEGNLEAIYVTDSDSNASIGMKKYYVGVNSAGKVAISAKEIEGDNIGAQVLGLFTLSTGQDIWEQTNLEHHHHHH
- Enzyme Activity Endpoint Assay: Fab′2: 552 ng/µL
- Enzyme Activity Endpoint Assay: Fc: 369 ng/µL
- Enzyme Activity Endpoint Assay: IgG: 51 ng/µL
- Enzyme Activity Endpoint Assay: scIgG: 285 ng/µL

B8: PRT-404 (protein)
chain: MVTSVWTKGVTPPADFTQGEDVFHAPYVANQGWYDITKTFNGKDDLLCGAATAGNMLHWWFDQNKEYIEAYLKKHPEKQKIMFGDQELLDVRKAINTKGSQKNSELFNYFRDKAFPNLSARRLGVMPDLVLDMFINGYYLNVTKTQTTDVNRTYQEKDKRGGIFDAVFTRGDQSKLLTSRHDFKEKGLKEISDLIKQELTEGKALGLSHTYANVRIGHVINLWGADFDSDGNLKAIYVTDSDSNASIGMKKYFVGVNSAGKVAISAKEIKEDNIGAQVLGLFTLSTGQDIWNQTN
- Enzyme Activity Endpoint Assay (purified): Fab′2: 0 ng/µL
- Enzyme Activity Endpoint Assay (purified): Fc: 0 ng/µL
- Enzyme Activity Endpoint Assay (purified): IgG: 1580 ng/µL
- Enzyme Activity Endpoint Assay (purified): scIgG: 0 ng/µL

B9: PRT-397 (protein)
chain: MVTSVWTKGVTPPADFTQGEDVFHAPYVANQGWYDITKTFNGKDDLLCGAATAGNMLHWWFDQNKEYIEAYLKKHPEKQKIMFGDQELLDVRKAINTKGSQKNSELFNYFRDKAFPNLSARRLGVMPDLVLDMFINGYYLNVTKTQTTDVNRTYQEKDKRGGIFDAVFTRGDQSKLLTSRHDFKEKGLKEISDLIKQELTEGKALGLSHTYANVGINHVINLWGADFDSDGNLKAIYVTDSDSNASIGMKKYFVGVNSAGKVAISAKEIKEDNIGAQVLGLFTLSTGQDIWNQTN
- Enzyme Activity Endpoint Assay (purified): Fab′2: 102 ng/µL
- Enzyme Activity Endpoint Assay (purified): Fc: 243 ng/µL
- Enzyme Activity Endpoint Assay (purified): IgG: 93 ng/µL
- Enzyme Activity Endpoint Assay (purified): scIgG: 498 ng/µL

B10: PRT-412 (protein)
chain: MVTSVWTKGVTPPADFTQGEDVFHAPYVANQGWYDITKTFNGKDDLLCGAATAGNMLHWWFDQNKEYIEAYLKKHPEKQKIMFGDQELLDVRKAINTKGSQKNSELFNYFRDKAFPNLSARRLGVMPDLVLDMFINGYYLNVTKTQTTDVNRTYQEKDKRGGIFDAVFTRGDQSKLLTSRHDFKEKGLKEISDLIKQELTEGKALGLSHTYANVRINHVINLWGADFDSDGNLKAIYVTDSDSNASIGMKKYFVGVNAAGKVAISAKEIKEDNIGAQVLGLFTLSTGQDIWNQTN
- Enzyme Activity Endpoint Assay (purified): Fab′2: 518 ng/µL
- Enzyme Activity Endpoint Assay (purified): Fc: 103 ng/µL
- Enzyme Activity Endpoint Assay (purified): IgG: 0 ng/µL
- Enzyme Activity Endpoint Assay (purified): scIgG: 170 ng/µL

B11: PRT-405 (protein)
chain: MVTSVWTKGVTPPADFTQGEDVFHAPYVANQGWYDITKTFNGKDDLLCGAATAGNMLHWWFDQNKEYIEAYLKKHPEKQKIMFGDQELLDVRKAINTKGSQKNSELFNYFRDKAFPNLSARRLGVMPDLVLDMFINGYYLNVTKTQTTDVNRTYQEKDKRGGIFDAVFTRGDQSKLLTSRHDFKEKGLKEISDLIKQELTEGKALGLSHTYANVRINHVINLWGADFDSDGNLKAIYVTDSDSNASIGMKKYGVGVNSAGKVAISAKEIKEDNIGAQVLGLFTLSTGQDIWNQTN
- Enzyme Activity Endpoint Assay (purified): Fab′2: 86 ng/µL
- Enzyme Activity Endpoint Assay (purified): Fc: 218 ng/µL
- Enzyme Activity Endpoint Assay (purified): IgG: 406 ng/µL
- Enzyme Activity Endpoint Assay (purified): scIgG: 558 ng/µL

B12: PRT-578 (protein)
chain: MANQEIRYSKATPKVITSVWTKGVTPPEDFTYNEDVFHAPYLPNQGWYDITKTFNGKDDLLCGAATAGNMLHWWFDQNKEQIERYLKEHPEKQKINFNGEQMFDVKEAIDTKDSQTNSKLFEYFKDKAFPYLSTKHLGVFPDHVIDMFINGYRLSLTNHGPTPVKEQNKDPRGGIFDAVFTRGDQSKLLTSRHDFKEKTLKEISDLIKQELKEGKALGLSHTYANVRINHVINLWGADFDAEGNLEAIYVTDSDSNASIGMKKYYVGVNSAGKVAISAKEIEGDNIGAQVLGLFTLSTGKDIWEQTNLEHHHHHH
- Enzyme Activity Endpoint Assay: Fab′2: 698 ng/µL
- Enzyme Activity Endpoint Assay: Fc: 394 ng/µL
- Enzyme Activity Endpoint Assay: IgG: 0 ng/µL
- Enzyme Activity Endpoint Assay: scIgG: 0 ng/µL

B13: PRT-381 (protein)
chain: MVTSVWTKGVTPPTNFTYGEDVLHAPYVANQGWYDITKTFNGKDDLLCGAATAGNMLHWWFDQNKEQIENYLKKHPEKQKINFNGEQMFDVKEAIDTKDSQLDSKLFEYFKEKAFPYLSTKHLGVFPDHVIDMFINGYRLSLTNHGPTPVKRGSKDPRGGIFDAVFTRGDQSKLLTNRHDFKEKTLKEISDLIKQELTEGKALGISHTYANVRINHVINLWGADFDAEGNLEAIYVTDSDSNPSIGMKKYFVGVNSNGKVAISAKEIEEDNIGAQVLGLFTLSTGQDIWNQTN
- Enzyme Activity Endpoint Assay (purified): Fab′2: 486 ng/µL
- Enzyme Activity Endpoint Assay (purified): Fc: 334 ng/µL
- Enzyme Activity Endpoint Assay (purified): IgG: 0 ng/µL
- Enzyme Activity Endpoint Assay (purified): scIgG: 194 ng/µL

B14: PRT-389 (protein)
chain: MVTSVWTKGVTPPTNFTYGEDVLHAPYVANQGWYDITKTFNGKDDLLCGAATAGNMLHWWFDQNKEQIENYLKKHPEKQKINFKGEQMFDVKEAIDTKDSQLDSKLFEYFKEKAFPYLSTKHLGVFPDHVIDMFINGYRLSLTNHGPTPVKRGSKDPRGGIFDAVFTRGDQSKLLTNRHDFKEKTLKEISDLIKQELTEGKALGISHTYANVRINHVINLWGADFDAEGNLEAIYVTDSDSNASIGMKKYFVGVNSNGKVAISAKEIEEDNIGAQVLGLFTLSTGQDIWNQTN
- Enzyme Activity Endpoint Assay (purified): Fab′2: 479 ng/µL
- Enzyme Activity Endpoint Assay (purified): Fc: 340 ng/µL
- Enzyme Activity Endpoint Assay (purified): IgG: 32 ng/µL
- Enzyme Activity Endpoint Assay (purified): scIgG: 219 ng/µL

From US20250027068
